According to PMC5793090 (Toxins, 2017):
“And” between values parts separate entries of the source, which are not always exact repeats. Equal entries are not always repeated.

B1: Lu12-Fc (Fc fusion)
chain: EVRLSVPPLVEVMRGKSVILDCTPTGTHDHYMLEWFLTDRSGARPRLASAEMQGSELQVTMHDTRGRSPPYQLDSQGRLVLAEAQVGDERDYVCVVRAGAAGTAEATARLNVFAKPEATEVSPNKGTLSVMEDSAQEIATCNSRNGNPAPKITWYRNGQRLEVPVEMNPEGYMTSRTVREASGLLSLTSTLYLRLRKDDRDASFHCAAHYSLPEGRHGRLDSPTFH
B2: Recombinant human extracellular rLu/BCAM with Fc-tag (Fc fusion)
chain: EVRLSVPPLVEVMRGKSVILDCTPTGTHDHYMLEWFLTDRSGARPRLASAEMQGSELQVTMHDTRGRSPPYQLDSQGRLVLAEAQVGDERDYVCVVRAGAAGTAEATARLNVFAKPEATEVSPNKGTLSVMEDSAQEIATCNSRNGNPAPKITWYRNGQRLEVPVEMNPEGYMTSRTVREASGLLSLTSTLYLRLRKDDRDASFHCAAHYSLPEGRHGRLDSPTFHLTLHYPTEHVQFWVGSPSTPAGWVREGDTVQLLCRGDGSPSPEYTLFRLQDEQEEVLNVNLEGNLTLEGVTRGQSGTYGCRVEDYDAADDVQLSKTLELRVAYLDPLELSEGKVLSLPLNSSAVVNCSVHGLPTPALRWTKDSTPLGDGPMLSLSSITFDSNGTYVCEASLPTVPVLSRTQNFTLLVQGSPELKTAEIEPKADGSWREGDEVTLICSARGHPDPKLSWSQLGGSPAEPIPGRQGWVSSSLTLKVTSALSRDGISCEASNPHGNKRHVFHFGTVSPQTSQA
notes: also called rLu/BCAM-Fc; recombinant Lu/BCAM; source: bought: Hölzel Diagnostika Handels GmbH
B3: CNF1 (720–1014), GST-tag removed (domain or fragment)
chain: SIESTSKSNFQKLSRGNIDVLKGRGSISSTRQRAIYPYFEAANADEQQPLFFYIKKDRFDNHGYDQYFYDNTVGLNGIPTLNTYTGEIPSDSSSLGSTYWKKYNLTNETSIIRVSNSARGANGIKIALEEVQEGKPVIITSGNLSGCTTIVARKEGYIYKVHTGTTKSLAGFTSTTGVKKAVEVLELLTKEPIPRVEGIMSNDFLVDYLSENFEDSLITYSSSEKKPDSQITIIRDNVSVFPYFLDNIPEHGFGTSATVLVRVDGNVVVRSLSESYSLNADASEISVLKVFSKKF
notes: also called CNF1 catalytic unit

Columns and labels:
[1] = biological target: Lu12-Fc; test: SPR
[2] = biological target: T1, GST-CNF1 (full-length Cytotoxic Necrotizing Factor 1 of Escherichia coli as GST fusion) (Escherichia coli, UniProt Q47106 1-1014, DyLight488 Maleimide label in the flow cytometry experiments only); test: SPR
T1 chain: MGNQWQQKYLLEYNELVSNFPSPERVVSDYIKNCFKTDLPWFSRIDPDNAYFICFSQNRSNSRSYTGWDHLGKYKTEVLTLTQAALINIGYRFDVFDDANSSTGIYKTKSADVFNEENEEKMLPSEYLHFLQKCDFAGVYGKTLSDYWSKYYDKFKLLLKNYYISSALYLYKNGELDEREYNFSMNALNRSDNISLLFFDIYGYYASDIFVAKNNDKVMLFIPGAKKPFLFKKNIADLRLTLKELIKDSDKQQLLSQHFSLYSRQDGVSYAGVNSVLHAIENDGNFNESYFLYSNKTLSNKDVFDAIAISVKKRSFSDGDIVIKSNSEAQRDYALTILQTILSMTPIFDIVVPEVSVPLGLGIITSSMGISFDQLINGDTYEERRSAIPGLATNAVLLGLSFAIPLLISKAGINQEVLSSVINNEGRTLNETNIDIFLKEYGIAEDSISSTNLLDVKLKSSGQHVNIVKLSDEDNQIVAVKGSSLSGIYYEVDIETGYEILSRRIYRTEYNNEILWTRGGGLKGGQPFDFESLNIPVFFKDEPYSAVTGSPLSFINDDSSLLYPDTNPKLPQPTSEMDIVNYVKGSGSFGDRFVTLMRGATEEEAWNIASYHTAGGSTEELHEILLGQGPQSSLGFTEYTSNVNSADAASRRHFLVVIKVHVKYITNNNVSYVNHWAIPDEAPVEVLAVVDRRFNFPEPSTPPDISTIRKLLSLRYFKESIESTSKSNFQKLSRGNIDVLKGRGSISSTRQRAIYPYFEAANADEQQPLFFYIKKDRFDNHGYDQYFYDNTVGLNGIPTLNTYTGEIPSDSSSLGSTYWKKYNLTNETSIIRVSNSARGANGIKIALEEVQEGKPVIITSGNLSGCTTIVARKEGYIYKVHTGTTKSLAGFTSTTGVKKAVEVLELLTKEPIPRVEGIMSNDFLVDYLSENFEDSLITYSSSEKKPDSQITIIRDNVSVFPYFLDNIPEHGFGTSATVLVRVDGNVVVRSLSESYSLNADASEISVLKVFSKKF

[3] = biological target: T2, GST-CNF1 (full-length Cytotoxic Necrotizing Factor 1 of Escherichia coli as GST fusion) (Escherichia coli, UniProt Q47106 1-1014, DyLight488 Maleimide label in the flow cytometry experiments only); test: far-Western, overlay or dot blot; CNF proteins spotted on a nitrocellulose membrane, incubated with 5 µM rLu/BCAM in TBST for 30 min, then blocked with 5% milk; bound rLu/BCAM detected with an anti-Lu/BCAM antibody; details: both partners purified
T2 construct: also called full-length CNF1; full toxin
T2 sequence: T1 chain

[4] = biological target: the molecule itself; test: SEC
[5] = biological target: B2; test: small-angle X-ray scattering (SAXS); details: both partners purified
[6] = biological target: B2; test: SEC; details: both partners purified

“GST-CNF1 (full-length Cytotoxic Necrotizing Factor 1 of Escherichia coli as GST fusion) (from UniProt Q47106 1-1014) (natural protein)” was tested, and the Kd [1] was 2 nM.

B1 was tested, and the koff [2] was 3e-05 s⁻¹.

For B2, the binding result [3] was “binds” and the “stoichiometry N” value [4] was 6.

B3 was tested, and the “stoichiometry N” value [5] was 1 CNF1 molecules per rLu/BCAM assembly and 2 CNF1 molecules per rLu/BCAM assembly and the “stoichiometry N” value [6] was 6 Lu/BCAM per CNF1.
